Results: article PMC4300165, “Highly thermostable GH39 β-xylosidase from a Geobacillus sp. strain WSUCF1” (BMC Biotechnology, 2014)
Values belong to the molecule of their own block, whether it stands above or below them.

Experiments:
WSUCF1 β-xylosidase = molecular target: T1, WSUCF1 β-xylosidase (Geobacillus zalihae, UniProt A0A7H1RXW2); assay: residual pNPX hydrolysis with added xylose; format: biochemical; conditions: pNPX 2.5 mg/ml stock as substrate, phosphate buffer pH 6.5, 70°C, 10 min; end-product inhibition
T1 construct: gene IC807_05610; full-length ORF of 1509 bp (about 502 residues); N-His SUMO fusion expressed in E. coli, tag cleaved with SUMO protease; 58 kDa, apparent tetramer of 230 kDa
T1 sequence (A0A7H1RXW2 2-503): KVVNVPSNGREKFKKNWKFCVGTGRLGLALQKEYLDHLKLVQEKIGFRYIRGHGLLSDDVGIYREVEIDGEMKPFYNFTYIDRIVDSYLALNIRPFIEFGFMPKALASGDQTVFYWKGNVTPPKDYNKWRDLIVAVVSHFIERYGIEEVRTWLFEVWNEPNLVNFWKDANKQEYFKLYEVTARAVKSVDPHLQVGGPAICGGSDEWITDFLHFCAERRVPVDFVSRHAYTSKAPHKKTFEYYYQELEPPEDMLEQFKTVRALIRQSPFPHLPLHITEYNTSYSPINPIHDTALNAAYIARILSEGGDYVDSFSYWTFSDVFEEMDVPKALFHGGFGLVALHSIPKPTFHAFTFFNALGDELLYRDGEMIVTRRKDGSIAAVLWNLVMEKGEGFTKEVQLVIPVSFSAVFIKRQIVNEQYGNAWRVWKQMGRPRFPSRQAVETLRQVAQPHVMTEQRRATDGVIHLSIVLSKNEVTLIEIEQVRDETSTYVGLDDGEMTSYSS

[1] = molecular target: WSUCF1 β-xylosidase (GH39 β-xylosidase from Geobacillus sp. strain WSUCF1) (Geobacillus sp. strain WSUCF1); assay: SDS-PAGE without heat treatment, with zymogram; purified enzyme mixed with 2X SDS sample buffer, loaded on an 8-16% gradient SDS-PAGE gel without heating (230 kDa, active) or after 95°C for 2 min (58 kDa, inactive); tetramer inferred from the 4-fold increase in apparent mass
purified protein = substrate: O=[N+]([O-])c1ccc(O[C@@H]2OC[C@@H](O)[C@H](O)[C@H]2O)cc1; assay: purified protein; format: biochemical, Geobacillus zalihae; conditions: 50 mM phosphate buffer pH 6.5, 70°C, 0–15 mM substrate, Table 2 prints 2.3

% activity retained at 300 mM (WSUCF1 β-xylosidase): 50%
Molecule: OC1OC[C@@H](O)[C@H](O)[C@H]1O (stereo partly drawn) [xylose]

stoichiometry N [1]: 4
Molecule: WSUCF1 β-xylosidase (GH39 β-xylosidase from Geobacillus sp. strain WSUCF1) (enzyme)

B1: WSUCF1 β-xylosidase (Geobacillus zalihae) (protein)
chain: T1 sequence (A0A7H1RXW2 2-503)
notes: full-length ORF of 1509 bp (about 502 residues); N-His SUMO fusion expressed in E. coli, tag cleaved with SUMO protease; 58 kDa, apparent tetramer of 230 kDa
Km (purified protein): 2.38 mM
